Reference: US20230140797A1 (published 2023)

T1: human FcγRIIb extracellular domain with C-terminal His tag (human, UniProt P31994 43-217)
T1 sequence (looked up): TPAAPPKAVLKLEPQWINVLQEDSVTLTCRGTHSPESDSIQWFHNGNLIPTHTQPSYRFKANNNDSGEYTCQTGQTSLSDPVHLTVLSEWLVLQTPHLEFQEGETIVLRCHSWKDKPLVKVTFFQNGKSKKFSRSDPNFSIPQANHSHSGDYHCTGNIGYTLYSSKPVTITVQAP

T2: human FcγRIIa type R (131Arg) extracellular domain with C-terminal His tag (human, UniProt P12318 34-217)
T2 sequence (looked up): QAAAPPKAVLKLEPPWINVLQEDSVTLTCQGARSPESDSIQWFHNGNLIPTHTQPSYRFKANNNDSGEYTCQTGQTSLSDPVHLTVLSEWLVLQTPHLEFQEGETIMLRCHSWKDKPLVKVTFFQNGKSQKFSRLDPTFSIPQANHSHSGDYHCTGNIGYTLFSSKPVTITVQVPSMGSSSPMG

T3: human FcγRIIb extracellular domain with C-terminal His tag (human, UniProt P31994 43-217)
T3 sequence (looked up): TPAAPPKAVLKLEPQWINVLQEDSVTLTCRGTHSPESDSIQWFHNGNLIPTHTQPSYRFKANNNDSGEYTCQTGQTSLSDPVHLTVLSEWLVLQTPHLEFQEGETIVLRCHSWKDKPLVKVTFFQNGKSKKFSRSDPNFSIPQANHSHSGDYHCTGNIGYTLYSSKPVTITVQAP


Each binder was assayed against T1, human FcγRIIb extracellular domain with … (assay: SPR Biacore, ratio of KDs).

Binder | KD (IIb) of the parent polypeptide/KD (IIb) of the altered polypeptide
IL6R-BP911/IL6R-L (antibody, human IgG1, kappa) heavy: QVQLQESGPGLVKPSETLSLTCAVSGHSISHDHAWSWVRQPPGEGLEWIGFISYSGITNYNPSLQGRVTISRDNSKNTLYLQMNSLRAEDTAVYYCARSLARTTAMDYWGEGTLVTVSSASTKGPSVFPLAPSSKSTSGGTAALGCLVKDYFPEPVTVSWNSGALTSGVHTFPAVLQSSGLYSLSSVVTVPSSSLGTQTYICNVNHKPSNTKVDKKVEPKSCDKTHTCPPCPAPELLGGDSVFLFPPKPKDTLMISRTPEVTCVVVDVSHEDPEVKFNWYVDGVEVHNAKTKPREEQYNSTYRVVSVLTVLHQDWLNGKEYKCKVSNKALPKPIEKTISKAKGQPREPQVYTLPPSRDELTKNQVSLTCLVKGFYPSDIAVEWESNGQPENNYKTTPPVLDSDGSFFLYSKLTVDKSRWQQGNVFSCSVMHEALHNHYTQESLSLSP light: not shown | 3.5 fold (parent IL6R-B3/IL6R-L)
IL6R-BP142/IL6R-L (antibody, human IgG1, kappa) heavy: QVQLQESGPGLVKPSETLSLTCAVSGHSISHDHAWSWVRQPPGEGLEWIGFISYSGITNYNPSLQGRVTISRDNSKNTLYLQMNSLRAEDTAVYYCARSLARTTAMDYWGEGTLVTVSSASTKGPSVFPLAPSSKSTSGGTAALGCLVKDYFPEPVTVSWNSGALTSGVHTFPAVLQSSGLYSLSSVVTVPSSSLGTQTYICNVNHKPSNTKVDKKVEPKSCDKTHTCPPCPAPELLGGDSVFLFPPKPKDTLMISRTPEVTCVVVDVSHEDPEVKFNWYVDGVEVHNAKTKPREEQYNSTYRVVSVLTVLHQDWLNGKEYKCKVSNNALPAPIEKTISKAKGQPREPQVYTLPPSRDELTKNQVSLTCLVKGFYPSDIAVEWESNGQPENNYKTTPPVLDSDGSFFLYSKLTVDKSRWQQGNVFSCSVMHEALHNHYTQESLSLSP light: not shown | 2.6 fold (parent IL6R-B3/IL6R-L)
IL6R-BP121/IL6R-L (antibody, human IgG1, kappa) heavy: QVQLQESGPGLVKPSETLSLTCAVSGHSISHDHAWSWVRQPPGEGLEWIGFISYSGITNYNPSLQGRVTISRDNSKNTLYLQMNSLRAEDTAVYYCARSLARTTAMDYWGEGTLVTVSSASTKGPSVFPLAPSSKSTSGGTAALGCLVKDYFPEPVTVSWNSGALTSGVHTFPAVLQSSGLYSLSSVVTVPSSSLGTQTYICNVNHKPSNTKVDKKVEPKSCDKTHTCPPCPAPELLGGDSVFLFPPKPKDTLMISRTPEVTCVVVDVSHEDPEVKFNWYVDGVEVHNAKTKPREEQYNSTYRVVSVLTVLHQDWLNGKEYKCKVSNQALPAPIEKTISKAKGQPREPQVYTLPPSRDELTKNQVSLTCLVKGFYPSDIAVEWESNGQPENNYKTTPPVLDSDGSFFLYSKLTVDKSRWQQGNVFSCSVMHEALHNHYTQESLSLSP light: not shown | 2.8 fold (parent IL6R-B3/IL6R-L)
IL6R-BP118/IL6R-L (antibody, human IgG1, kappa) heavy: QVQLQESGPGLVKPSETLSLTCAVSGHSISHDHAWSWVRQPPGEGLEWIGFISYSGITNYNPSLQGRVTISRDNSKNTLYLQMNSLRAEDTAVYYCARSLARTTAMDYWGEGTLVTVSSASTKGPSVFPLAPSSKSTSGGTAALGCLVKDYFPEPVTVSWNSGALTSGVHTFPAVLQSSGLYSLSSVVTVPSSSLGTQTYICNVNHKPSNTKVDKKVEPKSCDKTHTCPPCPAPELLGGDSVFLFPPKPKDTLMISRTPEVTCVVVDVSHEDPEVKFNWYVDGVEVHNAKTKPREEQYNSTYRVVSVLTVLHQDWLNGKEYKCKVSNSALPAPIEKTISKAKGQPREPQVYTLPPSRDELTKNQVSLTCLVKGFYPSDIAVEWESNGQPENNYKTTPPVLDSDGSFFLYSKLTVDKSRWQQGNVFSCSVMHEALHNHYTQESLSLSP light: not shown | 2.7 fold (parent IL6R-B3/IL6R-L)
IL6R-BP912/IL6R-L (antibody, human IgG1, kappa) heavy: QVQLQESGPGLVKPSETLSLTCAVSGHSISHDHAWSWVRQPPGEGLEWIGFISYSGITNYNPSLQGRVTISRDNSKNTLYLQMNSLRAEDTAVYYCARSLARTTAMDYWGEGTLVTVSSASTKGPSVFPLAPSSKSTSGGTAALGCLVKDYFPEPVTVSWNSGALTSGVHTFPAVLQSSGLYSLSSVVTVPSSSLGTQTYICNVNHKPSNTKVDKKVEPKSCDKTHTCPPCPAPELLGGDSVFLFPPKPKDTLMISRTPEVTCVVVDVSHEDPEVKFNWYVDGVEVHNAKTKPREEQYNSTYRVVSVLTVLHQDWLNGKEYKCKVSNKALPRPIEKTISKAKGQPREPQVYTLPPSRDELTKNQVSLTCLVKGFYPSDIAVEWESNGQPENNYKTTPPVLDSDGSFFLYSKLTVDKSRWQQGNVFSCSVMHEALHNHYTQESLSLSP light: not shown | 2.1 fold (parent IL6R-B3/IL6R-L)
IL6R-BP126/IL6R-L (antibody, human IgG1, kappa) heavy: QVQLQESGPGLVKPSETLSLTCAVSGHSISHDHAWSWVRQPPGEGLEWIGFISYSGITNYNPSLQGRVTISRDNSKNTLYLQMNSLRAEDTAVYYCARSLARTTAMDYWGEGTLVTVSSASTKGPSVFPLAPSSKSTSGGTAALGCLVKDYFPEPVTVSWNSGALTSGVHTFPAVLQSSGLYSLSSVVTVPSSSLGTQTYICNVNHKPSNTKVDKKVEPKSCDKTHTCPPCPAPELLGGDSVFLFPPKPKDTLMISRTPEVTCVVVDVSHEDPEVKFNWYVDGVEVHNAKTKPREEQYNSTYRVVSVLTVLHQDWLNGKEYKCKVSNLALPAPIEKTISKAKGQPREPQVYTLPPSRDELTKNQVSLTCLVKGFYPSDIAVEWESNGQPENNYKTTPPVLDSDGSFFLYSKLTVDKSRWQQGNVFSCSVMHEALHNHYTQESLSLSP light: not shown | 2.2 fold (parent IL6R-B3/IL6R-L)
IL6R-BP136/IL6R-L (antibody, human IgG1, kappa) heavy: QVQLQESGPGLVKPSETLSLTCAVSGHSISHDHAWSWVRQPPGEGLEWIGFISYSGITNYNPSLQGRVTISRDNSKNTLYLQMNSLRAEDTAVYYCARSLARTTAMDYWGEGTLVTVSSASTKGPSVFPLAPSSKSTSGGTAALGCLVKDYFPEPVTVSWNSGALTSGVHTFPAVLQSSGLYSLSSVVTVPSSSLGTQTYICNVNHKPSNTKVDKKVEPKSCDKTHTCPPCPAPELLGGDSVFLFPPKPKDTLMISRTPEVTCVVVDVSHEDPEVKFNWYVDGVEVHNAKTKPREEQYNSTYRVVSVLTVLHQDWLNGKEYKCKVSNAALPAPIEKTISKAKGQPREPQVYTLPPSRDELTKNQVSLTCLVKGFYPSDIAVEWESNGQPENNYKTTPPVLDSDGSFFLYSKLTVDKSRWQQGNVFSCSVMHEALHNHYTQESLSLSP light: not shown | 3.9 fold (parent IL6R-B3/IL6R-L)

These binders were tested against T2, human FcγRIIa type R (131Arg) … (assay: SPR).

Binder | Kd [µM]
IL6R-BP265/IL6R-L (antibody, human IgG1, kappa) heavy: QVQLQESGPGLVKPSETLSLTCAVSGHSISHDHAWSWVRQPPGEGLEWIGFISYSGITNYNPSLQGRVTISRDNSKNTLYLQMNSLRAEDTAVYYCARSLARTTAMDYWGEGTLVTVSSASTKGPSVFPLAPSSKSTSGGTAALGCLVKDYFPEPVTVSWNSGALTSGVHTFPAVLQSSGLYSLSSVVTVPSSSLGTQTYICNVNHKPSNTKVDKKVEPKSCDKTHTCPPCPAPELLGDDSVFLFPPKPKDTLMISRTPEVTCVVVDVSEEDGEVKFNWYVDGVEVHNAKTKPREEQDNSTYRVVSVLTVLHQDWLNGKEYKCKVSNKALPRPIEKTISKAKGQPREPQVYTLPPSRDELTKNQVSLTCLVKGFYPSDIAVEWESNGQPENNYKTTPPVLDSDGSFFLYSKLTVDKSRWQQGNVFSCSVMHEALHNHYTQESLSLSP light: not shown | 0.83

These binders were tested against T3, human FcγRIIb extracellular domain with … (assay: ratio of SPR KDs).

Binder | KD (IIaR)/KD (IIb)
IL6R-BP494/IL6R-L (antibody, human IgG1, kappa) heavy: QVQLQESGPGLVKPSETLSLTCAVSGHSISHDHAWSWVRQPPGEGLEWIGFISYSGITNYNPSLQGRVTISRDNSKNTLYLQMNSLRAEDTAVYYCARSLARTTAMDYWGEGTLVTVSSASTKGPSVFPLAPSSKSTSGGTAALGCLVKDYFPEPVTVSWNSGALTSGVHTFPAVLQSSGLYSLSSVVTVPSSSLGTQTYICNVNHKPSNTKVDKKVEPKSCDKTHTCPPCPAPELLGDDSVFLFPPKPKDTLMISRTPEVTCVVVDVAEEDGEVKFNWYVDGVEVHNAKTKPREEQDNSTYRVVSVLTVLHQDWLNGKEYKCKVSNKALPRPIEKTISKAKGQPREPQVYTLPPSRDELTKNQVSLTCLVKGFYPSDIAVEWESNGQPENNYKTTPPVLDSDGSFFLYSKLTVDKSRWQQGNVFSCSVMHEALHNHYTQESLSLSP light: not shown | 38.6
IL6R-BP499/IL6R-L (antibody, human IgG1, kappa) heavy: QVQLQESGPGLVKPSETLSLTCAVSGHSISHDHAWSWVRQPPGEGLEWIGFISYSGITNYNPSLQGRVTISRDNSKNTLYLQMNSLRAEDTAVYYCARSLARTTAMDYWGEGTLVTVSSASTKGPSVFPLAPSSKSTSGGTAALGCLVKDYFPEPVTVSWNSGALTSGVHTFPAVLQSSGLYSLSSVVTVPSSSLGTQTYICNVNHKPSNTKVDKKVEPKSCDKTHTCPPCPAPDLLGDDSVFLFPPKPKDTLMISRTPEVTCVVIDVAEEDGEVKFNWYVDGVEVHNAKTKPREEQDNSTYRVVSVLTVLHQDWLNGKEYKCKVSNKALPRPIEKTISKAKGQPREPQVYTLPPSRDELTKNQVSLTCLVKGFYPSDIAVEWESNGQPENNYKTTPLVLDSDGSFFLYSKLTVDKSRWQQGNVFSCSVMHEALHNHYTQESLSLSP light: not shown | 38.3
IL6R-BP489/IL6R-L (antibody, human IgG1, kappa) heavy: QVQLQESGPGLVKPSETLSLTCAVSGHSISHDHAWSWVRQPPGEGLEWIGFISYSGITNYNPSLQGRVTISRDNSKNTLYLQMNSLRAEDTAVYYCARSLARTTAMDYWGEGTLVTVSSASTKGPSVFPLAPSSKSTSGGTAALGCLVKDYFPEPVTVSWNSGALTSGVHTFPAVLQSSGLYSLSSVVTVPSSSLGTQTYICNVNHKPSNTKVDKKVEPKSCDKTHTCPPCPAPDLLGDDSVFLFPPKPKDTLMISRTPEVTCVVIDVAEEDGEVKFNWYVDGVEVHNAKTKPREEQDNSTYRVVSVLTVLHQDWLNGKEYKCKVSNKALPRPIEKTISKAKGQPREPQVYTLPPSRDELTKNQVSLTCLVKGFYPSDIAVEWESNGQPENNYKTTPMVLDSDGSFFLYSKLTVDKSRWQQGNVFSCSVMHEALHNHYTQESLSLSP light: not shown | 42.3
